Measurements as given in patent US20050202033A1.

B1: … (SSX-2: 41-49) (peptide)
peptide: KASEKIFYV
modifications: not checked
B2: … (GP100: 280-288 (288V)) (peptide)
peptide: YLEPGPVTV
modifications: not checked
B3: …gsgNLLRLTGW (peptide)
peptide: YMDGTMSQVGSGNLLRLTGW
modifications: not checked
B4: … (Trp-2: 180-188) (peptide)
peptide: SVYDFFVWL
modifications: not checked
B5: … (peptide)
peptide: GLYDGMEHLGSGNLLRLTGW
modifications: not checked
B6: … (peptide)
peptide: SVYDFFVWLGSGNLLRLTGW
modifications: not checked
B7: … (peptide)
peptide: YLEPGPVTVGSGNLLRLTGW
modifications: not checked
B8: … (peptide)
peptide: KASEKIFYVGSGNLLRLTGW
modifications: not checked
B9: …gsgNLLRLTGW (peptide)
peptide: IMDQVPFSVGSGNLLRLTGW
modifications: not checked
B10: … (MAGE-10: 254-262) (peptide)
peptide: GLYDGMEHL
modifications: not checked
B11: … (peptide)
peptide: SLLMWITQVGSGNLLRLTGW
modifications: not checked
B12: … (Gp100 209-217, T210M) (peptide)
peptide: IMDQVPFSV
modifications: not checked
B13: … (Tyrosinase 368-376, 370D) (peptide)
peptide: YMDGTMSQV
modifications: not checked
B14: … (peptide)
peptide: AFHHVARELGSGNLLRLTGW
modifications: not checked
B15: … (peptide)
peptide: ILKEPVHGVGSGNLLRLTGW
modifications: not checked
B16: SIINFEKL (ovalbumin amino acids 257-264) (peptide)
peptide: SIINFEKL
modifications: not checked
B17: … (HIV Pol: 263-273) (peptide)
peptide: VLDVGDAYFSV
modifications: not checked
B18: … (peptide)
peptide: VIYQYMDDLGSGNLLRLTGW
modifications: not checked
B19: … (HIV Nef: 190-198) (peptide)
peptide: AFHHVAREL
modifications: not checked
B20: ALIRJ… (as printed; hybrid antigen of the Vpr: 59-67 epitope) (peptide)
peptide: AIIRILQQLGSGNLLRLTGW
modifications: not checked
B21: … (peptide)
peptide: NLLRLTGWGSGSIINFEKL
modifications: not checked
B22: … (peptide)
peptide: SLFNTVATLGSGNLLRLTGW
modifications: not checked
B23: … (HIV Pol: 334-342) (peptide)
peptide: VIYQYMDDL
modifications: not checked
B24: RGYVYQGL (VSV nucleoprotein amino acids 52-59) (peptide)
peptide: RGYVYQGL
modifications: not checked
B25: … (peptide)
peptide: SLYNTVATLGSGNLLRLTGW
modifications: not checked
B26: … (HIV Nef: 190-198) (peptide)
peptide: ALKHRAYEL
modifications: not checked
B27: … (peptide)
peptide: ALKHRAYELGSGNLLRLTGW
modifications: not checked
B28: … (peptide)
peptide: VLDVGDAYFSVGSGNLLRLTGW
modifications: not checked
B29: … (HIV Vpr: 59-67) (peptide)
peptide: AIIRILQQL
modifications: not checked
B30: … (HIV Gag/p17: 77-85 (79F)) (peptide)
peptide: SLFNTVATL
modifications: not checked
B31: …gsgHWDFAWPW (peptide)
peptide: YMDGTMSQVGSGHWDFAWPW
modifications: not checked
B32: NLLRLTGW (peptide)
peptide: NLLRLTGW
modifications: not checked
B33: TLGIVCPI (HPV Strain 16 E7 86-93) (peptide)
peptide: TLGIVCPI
modifications: not checked
B34: …gsgHWDFAWPW (peptide)
peptide: YMLDLQPETTGSGHWDFAWPW
modifications: not checked
B35: SIINFEKLgsg… (peptide)
peptide: SIINFEKLGSGRKLFFNLRW
modifications: not checked
B36: SIINFEKLgsgNLLRLTGW (peptide)
peptide: SIINFEKLGSGNLLRLTGW
modifications: not checked
B37: PSMA P2 hybrid antigen with NLLRLTGW (peptide)
peptide: ALFDIESKVGSGNLLRLTGW
modifications: not checked
B38: FYQLALTW (peptide)
peptide: FYQLALTW
modifications: not checked
B39: … (Prostate Specific Membrane Antigen 771-779) (peptide)
peptide: ALFDIESKV
modifications: not checked
B40: …gsgHWDFAWPW (peptide)
peptide: IMDQVPFSVGSGHWDFAWPW
modifications: not checked
B41: SIINFEKLgsgFYQLALTW (peptide)
peptide: SIINFEKLGSGFYQLALTW
modifications: not checked
B42: … (peptide)
peptide: RKLFFNLRW
modifications: not checked
B43: TLGIVCPIgsgHWDFAWPW (peptide)
peptide: TLGIVCPIGSGHWDFAWPW
modifications: not checked
B44: SIINFEKLgsgHWDFAWPW (peptide)
peptide: SIINFEKLGSGHWDFAWPW
modifications: not checked
B45: TLGIVCPIgsgNLLRLTGW (peptide)
peptide: TLGIVCPIGSGNLLRLTGW
modifications: not checked
B46: HWDFAWPWgsg… (peptide)
peptide: HWDFAWPWGSGYMDGTMSQV
modifications: not checked
B47: HWDFAWPW (peptide)
peptide: HWDFAWPW
modifications: not checked
B48: HWDFAWPWgsgSIINFEKL (peptide)
peptide: HWDFAWPWGSGSIINFEKL
modifications: not checked
B49: …gsgHWDFAWPW (peptide)
peptide: ALFDIESKVGSGHWDFAWPW
modifications: not checked

target: recombinant human or murine heat shock protein 70 (hsp70) (human or murine) (UniProt P0DMV8); test: on hsp70
Sequence (P0DMV8 whole entry): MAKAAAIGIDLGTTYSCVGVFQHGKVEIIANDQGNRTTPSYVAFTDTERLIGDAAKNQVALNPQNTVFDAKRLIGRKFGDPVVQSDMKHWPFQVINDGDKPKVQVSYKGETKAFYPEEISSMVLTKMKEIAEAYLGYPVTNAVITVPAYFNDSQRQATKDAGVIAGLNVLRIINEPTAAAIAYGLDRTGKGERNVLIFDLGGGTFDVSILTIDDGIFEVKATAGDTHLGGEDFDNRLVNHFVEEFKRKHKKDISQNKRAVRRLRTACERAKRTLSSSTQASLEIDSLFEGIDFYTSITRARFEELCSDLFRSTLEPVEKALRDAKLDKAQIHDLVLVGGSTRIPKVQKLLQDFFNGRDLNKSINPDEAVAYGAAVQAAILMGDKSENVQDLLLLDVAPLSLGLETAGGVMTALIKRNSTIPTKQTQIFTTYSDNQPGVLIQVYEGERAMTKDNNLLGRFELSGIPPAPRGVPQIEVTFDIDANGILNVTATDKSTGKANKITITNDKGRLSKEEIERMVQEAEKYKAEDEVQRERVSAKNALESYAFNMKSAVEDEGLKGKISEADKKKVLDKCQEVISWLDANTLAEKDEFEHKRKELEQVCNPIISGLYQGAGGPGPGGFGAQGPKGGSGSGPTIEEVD

Row | Molecule | Kd [µM]
1 | […] (HIV Pol: 464-472) (peptide; other documents disagree on this pair) | 83

target: recombinant human or murine heat shock protein 70 (hsp70) (human or murine) (UniProt P0DMV8); test: binding inhibition assay (Hill plot) against tritiated … on hsp70

Row | Molecule | Kd [µM]
2 | […] (HPV Strain 16 E7 11-20) (peptide; other documents disagree on this pair) | 91

target: T1, recombinant human or murine heat shock protein 70 (hsp70) (human or murine), P0DMV8; test: binding inhibition assay as in Example 2, on hsp70
T1 sequence (P0DMV8 whole entry): as above

Row | Molecule | Kd [µM]
3 | B1 | 57
4 | B2 | 71
5 | B3 | 1.8
6 | B4 | 81
7 | B5 | 1.1
8 | B6 | 2.9
9 | B7 | 2
10 | B8 | 1.4
11 | B9 | 0.9
12 | B10 | 48
13 | B11 | 2.2
14 | B12 | 2570
15 | B13 | 209

target: T1, recombinant human or murine heat shock …; test: on hsp70

Row | Molecule | Kd [µM]
16 | B14 | 2.1
17 | B15 | 1.2
18 | B16 | 235
19 | B17 | 110
20 | B18 | 1.7
21 | B19 | 84
22 | B20 | 0.6
23 | B21 | 1.6
24 | B22 | 1.9
25 | B23 | 91
26 | B24 | 82
27 | B25 | 1.8
28 | B26 | 97
29 | B27 | 1.1
30 | B28 | 2
31 | B29 | 93
32 | B30 | 35

target: T1, recombinant human or murine heat shock …; test: binding inhibition assay (Hill plot) against tritiated … on hsp70

Row | Molecule | Kd [µM]
33 | B31 | 24
34 | B32 | 1.85
35 | B33 | 187
36 | B34 | 27
37 | B16 | 279
38 | B35 | 7
39 | B36 | 1.2
40 | B37 | 1.3
41 | B38 | 5.9
42 | B3 | 2.65
43 | B39 | 145
44 | B40 | 155
45 | B41 | 1.43
46 | B42 | 15
47 | B43 | 9.1
48 | B44 | 40
49 | B9 | 3.1
50 | B45 | 5.2
51 | B46 | 29
52 | B12 | 2560
53 | B47 | 120
54 | B13 | 204
55 | B48 | 4.3

target: T1, recombinant human or murine heat shock …; test: binding inhibition assay (Hill plot) or Scatchard analysis of the reference on hsp70

Row | Molecule | Kd [µM]
56 | B49 | 22

target: T1, recombinant human or murine heat shock …; test: competition against a labeled reporter peptide on HSP70; Kd calculated from IC50 (Hill plot)

Row | Molecule | fold increase in affinity over … (SEQ ID NO:368) [fold]
57 | B36 | 15
